Reference: patent US10746644B2, “Vitro method and apparatus for analysing the behaviour of substances in simulated physiological environment” (Hoffmann-La Roche Inc., priority 2014, dated 2020)

Assay: Effect of dialysis membrane MWCO on diffusion of BSA and IgG from VH-compartment to FT-compartment
Assay type: in vitro ADME, porcine
Conditions: DM-1 50 kDa MWCO compared with DM-1 100 kDa MWCO; DM-2 100 kDa; HA gel 0.6% w/v
Experimental: Diffusion of bovine serum albumin (BSA) and Immunoglobulin G (IgG) in the flow direction from VH-compartment to FT-compartment was investigated by varying MWCO of the dialysis membrane. The experiment was performed similarly as described in example 1 with minor modifications. Two different MWCO dialysis membranes were used as DM-1, with MWCO 50 kDa and 100 kDa, whereas the MWCO of DM-2 was kept constant at 100 kDa. VH-compartment was filled with 3.5 mL of sterile porcine VH and GM-compartment was filled with about 3 mL of sterile HA gel (0.6% w/v). FT-compartment was filled with sterile PBS.

FITC-BSA: FITC-labelled bovine serum albumin (66 kDa), globular macromolecule
diffusion into FT compartment: restrained the diffusion of both IgG and BSA significantly
